Reference: PMC3706991

Key:
[1] = molecular target: CD27 (human (endogenous in CD4+ T cells of blood donors)) (UniProt P26842)
[2] = molecular target: CD27 (human (endogenous in CD4+ T cells of blood donors)) (UniProt P26842); remark: listed apart in the source

Sequence of UniProt P26842 (P26842 20-260): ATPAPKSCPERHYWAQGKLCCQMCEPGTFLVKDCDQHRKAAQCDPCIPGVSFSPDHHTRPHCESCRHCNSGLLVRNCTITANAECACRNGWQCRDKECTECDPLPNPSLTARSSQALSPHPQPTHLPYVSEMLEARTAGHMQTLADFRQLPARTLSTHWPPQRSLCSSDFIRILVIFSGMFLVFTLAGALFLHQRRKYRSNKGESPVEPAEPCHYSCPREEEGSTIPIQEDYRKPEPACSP

B1: CD70 (ligand)
chain: MPEEGSGCSVRRRPYGCVLRAALVPLVAGLVICLVVCIQRFAQAQQQLPLESLGWDVAELQLNHTGPQQDPRLYWQGGPALGRSFLHGPELDKGQLRIHRDGIYMVHIQVTLAICSSTTASRHHPTTLAVGICSPASRSISLLRLSFHQGCTIASQRLTPLARGDTLCTNLTGTLLPSRNTDETFFGVQWVRP
50%: HB1.F3 (NSC)-mediated apoptosis of CD4+ T cells (Annexin V/PI, FACS) in co-culture with anti-CD27 blocking mAb (LG.7F9), 0-1 ug/ml [1] | HB1.F3 (NSC)-mediated apoptosis of CD4+ T cells (Annexin V/PI, FACS) in co-culture with anti-CD70 blocking mAb (BU69), 0-1 ug/ml [1] | decrease in FasL expression level on CD4+ T cells (FACS) in co-culture with HB1.F3 after addition of anti-CD27 mAb [2]
